In this test the target is T1, murine CD40 (mouse, UniProt P27512 20-289).
T1 construct: Endogenous CD40 on cells in the tumor microenvironment of C57BL/6J mice; also called mouse CD40; muCD40
T1 sequence: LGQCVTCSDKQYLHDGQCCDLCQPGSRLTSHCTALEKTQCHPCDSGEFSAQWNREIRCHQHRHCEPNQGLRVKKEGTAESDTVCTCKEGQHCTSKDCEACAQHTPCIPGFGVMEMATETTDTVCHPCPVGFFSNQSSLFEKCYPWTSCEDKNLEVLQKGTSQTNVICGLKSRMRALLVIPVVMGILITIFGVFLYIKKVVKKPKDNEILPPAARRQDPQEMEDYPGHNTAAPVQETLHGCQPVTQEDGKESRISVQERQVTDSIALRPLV
As to the kind of experiment: in vivo fluorescence imaging of the Alexa647-labelled antibody in TC-1 tumors (devoid of FAP expression), four days after i.p. injection. From the text:
To assess FAP-CD40 antibody access to the TC-1 tumor, we intraperitoneally injected the anti-FAP-CD40 antibody labeled with Alexa647 into TC-1 and mEERL95 tumor-bearing mice that underwent local irradiation. The antibody was detectable in both tumors four days upon administration. No significant difference in the fluorescence intensity was detected in both TC-1 and mEERL95 tumors (FIG. 4H) which present similar CD40 mRNA expression levels (FIG. 4C).

B1: muCD40 x FAP (28H1) 4+1 bispecific antibody (VH on knob and VL on hole) (P1AD9139) (bispecific antibody)
light: DTVLTQSPALAVSPGERVTISCRASDSVSTLMHWYQQKPGQQPKLLIYLASHLESGVPARFSGSGSGTDFTLTIDPVEADDTATYYCQQSWNDPWTFGGGTKLELKRTVAAPSVFIFPPSDEQLKSGTASVVCLLNNFYPREAKVQWKVDNALQSGNSQESVTEQDSKDSTYSLSSTLTLSKADYEKHKVYACEVTHQGLSSPVTKSFNRGEC
heavy 1: not shown
heavy 2: EVQLVESDGGLVQPGRSLKLPCAASGFTFSDYYMAWVRQAPTKGLEWVASISYDGSSTYYRDSVKGRFTISRDNAKSTLYLQMDSLRSEDTATYYCGRHSSYFDYWGQGVMVTVSSASTKGPSVFPLAPSSKSTSGGTAALGCLVKDYFPEPVTVSWNSGALTSGVHTFPAVLQSSGLYSLSSVVTVPSSSLGTQTYICNVNHKPSNTKVDKKVEPKSCDGGGGSGGGGSEVQLVESDGGLVQPGRSLKLPCAASGFTFSDYYMAWVRQAPTKGLEWVASISYDGSSTYYRDSVKGRFTISRDNAKSTLYLQMDSLRSEDTATYYCGRHSSYFDYWGQGVMVTVSSASTKGPSVFPLAPSSKSTSGGTAALGCLVKDYFPEPVTVSWNSGALTSGVHTFPAVLQSSGLYSLSSVVTVPSSSLGTQTYICNVNHKPSNTKVDKKVEPKSCDKTHTCPPCPAPEAAGGPSVFLFPPKPKDTLMISRTPEVTCVVVDVSHEDPEVKFNWYVDGVEVHNAKTKPREEQYNSTYRVVSVLTVLHQDWLNGKEYKCKVSNKALGAPIEKTISKAKGQPREPQVCTLPPSRDELTKNQVSLSCAVKGFYPSDIAVEWESNGQPENNYKTTPPVLDSDGSFFLVSKLTVDKSRWQQGNVFSCSVMHEALHNHYTQKSLSLSPGGGGGSGGGGSGGGGSGGGGSEIVLTQSPGTLSLSPGERATLSCRASQSVSRSYLAWYQQKPGQAPRLLIIGASTRATGIPDRFSGSGSGTDFTLTISRLEPEDFAVYYCQQGQVIPPTFGQGTKVEIK
notes: Four anti-mouse CD40 (FGK4.5) Fabs, human IgG1 P329G LALA knob-into-hole Fc, and 28H1 VH on the knob chain and VL on the hole chain; That paragraph says only 'anti-FAP-CD40 antibody'; also called FAP-CD40; anti-FAP-CD40
With B1, the binding result is “binds”.
